Source: US20260250318A1, “COMPOSITIONS AND METHODS FOR CROSSING THE BLOOD BRAIN BARRIER” (VOYAGER THERAPEUTICS, INC., priority 2022, published 2026)
Numbering of substitutions follows the chain as printed.

T1: ALPL (Homo sapiens, UniProt P05186)
T1 sequence (P05186 18-501): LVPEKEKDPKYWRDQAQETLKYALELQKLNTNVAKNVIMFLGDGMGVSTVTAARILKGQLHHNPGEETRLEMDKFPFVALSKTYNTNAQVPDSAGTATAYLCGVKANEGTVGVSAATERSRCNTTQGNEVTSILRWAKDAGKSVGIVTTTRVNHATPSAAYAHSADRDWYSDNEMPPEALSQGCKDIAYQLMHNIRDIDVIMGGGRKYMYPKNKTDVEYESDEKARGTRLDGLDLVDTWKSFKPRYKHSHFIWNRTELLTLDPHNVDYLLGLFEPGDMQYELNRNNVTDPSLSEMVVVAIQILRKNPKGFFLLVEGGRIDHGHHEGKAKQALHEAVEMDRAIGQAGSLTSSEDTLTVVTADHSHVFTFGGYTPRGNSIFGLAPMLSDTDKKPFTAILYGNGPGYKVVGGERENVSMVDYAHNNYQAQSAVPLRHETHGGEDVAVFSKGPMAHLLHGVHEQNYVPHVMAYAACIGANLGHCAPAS

T2: ALPL (Homo sapiens, UniProt P05186)
T2 construct: expressed in transfected cells; host or cells: HEK 293T
T2 sequence (P05186 whole entry, looked up): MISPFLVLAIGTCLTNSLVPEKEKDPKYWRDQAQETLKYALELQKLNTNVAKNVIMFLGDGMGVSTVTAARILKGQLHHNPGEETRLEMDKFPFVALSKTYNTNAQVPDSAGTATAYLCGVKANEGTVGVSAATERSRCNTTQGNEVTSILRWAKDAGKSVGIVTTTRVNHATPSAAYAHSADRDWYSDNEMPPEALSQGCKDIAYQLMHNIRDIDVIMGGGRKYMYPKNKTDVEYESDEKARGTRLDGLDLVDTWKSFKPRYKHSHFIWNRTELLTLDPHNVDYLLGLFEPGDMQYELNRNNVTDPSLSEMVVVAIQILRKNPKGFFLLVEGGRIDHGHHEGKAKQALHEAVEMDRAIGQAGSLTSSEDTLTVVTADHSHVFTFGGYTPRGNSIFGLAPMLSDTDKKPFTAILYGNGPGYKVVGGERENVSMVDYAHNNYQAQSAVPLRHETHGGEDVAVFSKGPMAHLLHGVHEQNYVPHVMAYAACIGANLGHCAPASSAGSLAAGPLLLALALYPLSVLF

T3: AAVR (Homo sapiens, UniProt Q8IZA0)
T3 construct: expressed in transfected cells; host or cells: HEK 293T
T3 sequence (Q8IZA0 whole entry, looked up): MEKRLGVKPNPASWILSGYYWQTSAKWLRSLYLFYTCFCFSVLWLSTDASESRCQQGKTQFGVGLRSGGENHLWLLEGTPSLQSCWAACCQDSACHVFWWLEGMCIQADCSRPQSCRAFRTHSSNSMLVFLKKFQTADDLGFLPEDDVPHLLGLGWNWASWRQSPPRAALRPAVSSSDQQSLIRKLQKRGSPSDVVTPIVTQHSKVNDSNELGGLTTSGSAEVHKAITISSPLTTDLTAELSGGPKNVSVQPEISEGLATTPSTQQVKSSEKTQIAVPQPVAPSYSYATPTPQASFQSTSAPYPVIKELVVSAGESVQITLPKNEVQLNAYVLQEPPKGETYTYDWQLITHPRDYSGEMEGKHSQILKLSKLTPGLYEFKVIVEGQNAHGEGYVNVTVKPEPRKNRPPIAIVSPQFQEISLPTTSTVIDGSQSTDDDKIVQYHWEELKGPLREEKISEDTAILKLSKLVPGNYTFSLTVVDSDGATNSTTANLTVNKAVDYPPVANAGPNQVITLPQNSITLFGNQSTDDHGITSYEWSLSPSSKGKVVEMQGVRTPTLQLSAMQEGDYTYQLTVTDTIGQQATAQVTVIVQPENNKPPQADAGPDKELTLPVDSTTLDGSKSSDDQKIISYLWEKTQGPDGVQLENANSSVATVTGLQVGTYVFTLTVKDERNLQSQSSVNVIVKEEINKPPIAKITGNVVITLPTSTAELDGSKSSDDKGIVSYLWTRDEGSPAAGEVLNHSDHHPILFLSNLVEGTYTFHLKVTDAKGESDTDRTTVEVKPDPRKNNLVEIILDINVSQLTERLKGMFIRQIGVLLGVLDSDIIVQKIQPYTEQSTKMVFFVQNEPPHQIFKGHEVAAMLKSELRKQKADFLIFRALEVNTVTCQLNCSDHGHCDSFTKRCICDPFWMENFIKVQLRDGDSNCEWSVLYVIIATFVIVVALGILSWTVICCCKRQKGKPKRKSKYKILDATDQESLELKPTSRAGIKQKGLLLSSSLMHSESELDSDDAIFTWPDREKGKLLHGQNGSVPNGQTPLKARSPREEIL

B1: TTM-006: AAV9 capsid variant, full length capsid sequence of Table 4 (protein)
chain: MAADGYLPDWLEDNLSEGIREWWALKPGAPQPKANQQHQDNARGLVLPGYKYLGPGNGLDKGEPVNAADAAALEHDKAYDQQLKAGDNPYLKYNHADAEFQERLKEDTSFGGNLGRAVFQAKKRLLEPLGLVEEAAKTAPGKKRPVEQSPQEPDSSAGIGKSGAQPAKKRLNFGQTGDTESVPDPQPIGEPPAAPSGVGSLTMASGGGAPVADNNEGADGVGSSSGNWHCDSQWLGDRVITTSTRTWALPTYNNHLYKQISNSTSGGSSNDNAYFGYSTPWGYFDFNRFHCHFSPRDWQRLINNNWGFRPKRLNFKLFNIQVKEVTDNNGVKTIANNLTSTVQVFTDSDYQLPYVLGSAHEGCLPPFPADVFMIPQYGYLTLNDGSQAVGRSSFYCLEYFPSQMLRTGNNFQFSYEFENVPFHSSYAHSQSLDRLMNPLIDQYLYYLSKTEKMSGSPHSKAQNQQTLKFSVAGPSNMAVQGRNYIPGPSYRQQRVSTTVTQNNNSEFAWPGASSWALNGRNSLMNPGPAMASHKEGEDRFFPLSGSLIFGKQGTGRDNVDADKVMITNEEEIKTTNPVATESYGQVATNHQSAQAQAQTGWVQNQGILPGMVWQDRDVYLQGPIWAKIPHTDGNFHPSPLMGGFGMKHPPPQILIKNTPVPADPPTAFNKDKLNSFITQYSTGQVSVEIEWELQKENSKRWNPEIQYTSNYYKSNNVEFAVNTEGVYSEPRPIGTRYLTRNL
B2: TTM-018: AAV9 capsid variant, full length capsid sequence of Table 4 (protein)
chain: B1 chain with E451I, K452N, M453G, S454H, G455D, Q464L
B3: TTM-019: AAV9 capsid variant, full length capsid sequence of Table 4 (protein)
chain: B1 chain with E451V, K452N, M453G, S454H, G455D

Assays:
ALPL [1] = target: T1, ALPL; experiment: SPR (Biacore 8K) binding of peptide ligands to ALPL; conditions: 50 μM peptides or 250 nM capsids flowed over
Experimental: Binding and interaction between the peptides and the ALPL receptor were measured by Surface Plasmon Resonance (SPR) on a Biacore 8K instrument. The biotinylated peptides in Table 37 were captured on the streptavidin biosensor chip and 1000 nM of ALPL and buffer were passed over the peptides to monitor binding. […] His-tagged ALPL was then captured on the chip pre-immobilized with anti-His antibody, and 50 μM of the peptides in Table 37 or 250 nM of the AAV9 control capsid, the TTM-001 capsid variant (SEQ ID NO: 981), or the TTM-002 capsid variant (SEQ ID NO: 982) were flowed over the ALPL to check for binding. […] The longer peptides derived from TTM-002,
were also flowed over the his-tagged ALPL captured on the CM5 sensor chip pre-immobilized with anti-His antibody.
Binding and interaction between the phosho-peptides and the ALPL receptor were also measured by SPR. The biotinylated and phosphorylated peptides in Table 38 were captured on the streptavidin biosensor chip along with their non-phosphorylated counterparts, […] (SEQ ID NO: 4500) and […] (SEQ ID NO: 4503). ALPL and buffer were passed over the peptides to monitor binding. The concentration of ALPL used ranged from 0 to 500 nM (0 nM, 125 nM, 250 nM, and 500 nM).
In a second experiment, his-tagged ALPL was first captured on a CM5 sensor chip pre-immobilized with anti-His antibody. The phosphorylated peptides in Table 38 and their non-phosphorylated counterparts, […] (SEQ ID NO: 4500) and […] (SEQ ID NO: 4503) and buffer were flowed over the ALPL protein to monitor binding.

[2] = system: HEK 293T cells transfected with pCMV6 negative control; format: cell-based; conditions: Table 28; pCMV6 transfected cells (negative control, reference)
Experimental: (§1) Briefly, a transduction assay was performed in that HEK 293T cells were transfected via calcium phosphate transfection with a plasmid expressing ALPL, an AAVR positive control, or a pCMV6 negative control (250 ng or 500 ng of plasmid). AAVR is a universal AAV entry factor involved in AAV transduction. […] At 24-hours post-transduction, GFP expression and luciferase activity were measured to quantify and observe AAV cellular transduction. […] The TTM-002, TTM-006, TTM-018, and TTM-019 capsid variants all comprised the SPH motif immediately subsequent to position 455, numbered relative to SEQ ID NO: 138 and a positive residue in one of the next three residues subsequent to the SPH motif.
Three isoforms of ALPL exist, isoform 1 (Alkaline phosphatase, placental-like 2 (ALPPL2), NM_031313, which is incorporated by reference herein), isoform 2 (alkaline phosphatase, placental (ALPP), NM_001632, which is incorporated by reference herein), and isoform 3 (alkaline phosphatase, intestinal (ALPLI), NM_001631, which is incorporated by reference herein), that can also be expressed on cell surfaces via a GPI-anchor. […] The transduction assay described above was repeated with the three isoforms. HEK 293T cells were transfected via calcium phosphate transfection with a plasmid expressing ALPL, isoform 1 of ALPL, isoform 2 of ALPL, isoform 3 of ALPL, an AAVR positive control, or a pCMV6 negative control. At 24 hours post-transfection, the HEK 293T cells expressing the ALPL receptor were transduced with an AAV particle comprising the TTM-001 capsid variant or the TTM-002 capsid variant, expressing a Luc2-GFP payload. At 24-hours post-transduction, luciferase activity (RLU) was measured to quantify AAV cellular transduction.
To determine if deletion of the endoplasmic reticulum (ER) localization signal of ALPL affected transduction of the TTM-001 and TTM-002 capsid variants, HEK 293T cells were transfected via calcium phosphate transfection with a plasmid expressing ALPL, ALP with a deletion of the ER localization signal (ALPL transcript variant 2 that lacks the ER signal (NM_001127501, which is incorporated by reference herein)), or a pCMV6 negative control. At 24 hours post-transfection, the HEK 293T cells expressing the ALPL receptor were transduced with an AAV particle comprising the TTM-001 capsid variant, the TTM-002 capsid variant, or an AAV9 capsid control, expressing a GFP payload. At 24-hours post-transduction, luciferase activity (RLU) was measured to quantify AAV cellular transduction. Data was normalized to fold change in luciferase activity (RLU) compared to the pCMV6 control.
(§2) To determine if the TTM-001 and TTM-002 capsid variants could bind to both the human ALPL protein (NM_000478.6, which is incorporated by reference herein) and the mouse ALPL ortholog (NM_001287172.1, which is incorporated by reference herein), HEK 293T cells were transfected via calcium phosphate transfection with a plasmid expressing human ALPL, the murine ortholog of ALPL, or a pCMV6 negative control. At 24 hours post-transfection, the HEK 293T cells expressing the ALPL receptor were transduced with an AAV particle comprising the TTM-001 capsid variant, the TTM-002 capsid variant, or an AAV9 control capsid protein, expressing a Luc2-GFP payload. At 24-hours post-transduction, luciferase activity (RLU) was measured to quantify AAV cellular transduction.
AAV entry factor involved in AAV transduction), or a pCMV6 negative control.

ALPL [3] = target: T2, ALPL; format: cell-based; conditions: for Luciferase Activity (fold change relative to pCMV6 transfected cells): Table 28, ALPL transfected cells; for fold increase in transduction by luciferase assay in cells expressing ALPL: relative to pCMV6 transfected cells, 24 hours post-transduction
Experimental: as §1, §2

AAVR = target: T3, AAVR; format: cell-based; conditions: Table 28; AAVR transfected cells
Experimental: as §1

| Molecule | binding to ALPL by SPR, His-tagged ALPL captured on chip (ALPL [1]) | Luciferase Activity (fold change relative to pCMV6 transfected cells) [2] [fold] | Luciferase Activity (fold change relative to pCMV6 transfected cells) (ALPL [3]) [fold] | fold increase in transduction by luciferase assay in cells expressing ALPL (ALPL [3]) | Luciferase Activity (fold change relative to pCMV6 transfected cells) (AAVR) [fold] |
| --- | --- | --- | --- | --- | --- |
| GSGSLYYLSKTINGHDSPHKSGQNQQTLKF [longer peptide derived from TTM-002] | no binding to ALPL was observed | – | – | – | – |
| GSGSRLMNPLIDQYLYYLSKTINGHDSPHKSGQNQQTLKFSVAGPSNMAV [longer peptide derived from TTM-002] | no binding to ALPL was observed | – | – | – | – |
| B1 | – | 1 | 91 | an increase in transduction | 25 |
| B2 | – | 1 | 90 | an increase in transduction | 25 |
| B3 | – | 1 | 88 | an increase in transduction | 28 |
